{"source": "patent EP0607103A2", "about": "“Somatostatin analogs containing chelating groups and their radiolabeled compositions” (SANDOZ LTD., priority 1993, dated 1994)", "design": "species or system rats", "conditions": "rat, in vivo", "description": "The affinity of the CHELATES OF THE INVENTION for somatostatin receptors can also be shown by in vivo testing, according to standard test methods, e.g. as disclosed in GB-A-2, 225,579. For example the compound of Example 2 gives a tumor accumulation of 1.9 ± 0.4 % injected dose per g (n = 6) 4 hours after injection into rats bearing an exocrine pancreatic tumor.", "data": [{"smiles": "C[C@@H](O)[C@@H]1NC(=O)[C@H](CCCCN)NC(=O)[C@@H](Cc2c[nH]c3ccccc23)NC(=O)[C@H](Cc2ccccc2)NC(=O)[C@@H](NC(=O)[C@@H](Cc2ccccc2)NC(=S)Nc2ccc(CC(CNCCN)CNCCN)cc2)CSSC[C@@H](C(=O)N[C@H](CO)[C@@H](C)O)NC1=O", "note": "[Example 2, ^99mTc labelled compound of Example 1, metal not drawn]", "values": [{"measurement": "tissue uptake at 4 h", "result": "1.9 ± 0.4", "unit": "%ID/g"}]}]}
